The record followed here is PMC3267021, “The Molecular Basis for the Endocytosis of Small R-SNAREs by the Clathrin Adaptor CALM” (Cell, 2011).

The Kd is the equilibrium constant for the complex coming apart. Usually stoichiometry N stands for a count of units in the complex or per binding partner.

Numbering of substitutions follows the chain as printed. Where “and” joins values, the source holds several entries; their conditions need not be identical. Identical values can stand only once.

The chains are these.
T1: His6MycCALM_(ANTH) (CALM ANTH domain, residues 1-289) (rat, UniProt O55012 1-289)
T1 construct: source: E. coli BL21(DE3) pLysS, purified (Ni2+-NTA agarose, S200 gel filtration)
T1 sequence (looked up): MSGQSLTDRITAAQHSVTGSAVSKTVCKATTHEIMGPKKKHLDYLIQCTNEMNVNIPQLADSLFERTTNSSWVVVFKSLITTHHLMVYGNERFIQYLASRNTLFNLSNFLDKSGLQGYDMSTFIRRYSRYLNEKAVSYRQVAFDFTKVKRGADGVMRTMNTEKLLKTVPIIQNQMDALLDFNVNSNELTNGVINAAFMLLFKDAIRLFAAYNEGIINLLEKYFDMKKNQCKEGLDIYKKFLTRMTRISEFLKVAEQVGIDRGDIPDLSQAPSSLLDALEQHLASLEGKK

T2: SNAP23, GST cleaved (human, UniProt O00161 1-211)
T2 construct: SNAP23, human; Construct pGEX 4T1 SNAP23 (human); source: E. coli BL21(DE3) pLysS, purified (glutathione sepharose, thrombin cleavage of GST); not shown: GST, N-terminal, cleaved
T2 sequence (looked up): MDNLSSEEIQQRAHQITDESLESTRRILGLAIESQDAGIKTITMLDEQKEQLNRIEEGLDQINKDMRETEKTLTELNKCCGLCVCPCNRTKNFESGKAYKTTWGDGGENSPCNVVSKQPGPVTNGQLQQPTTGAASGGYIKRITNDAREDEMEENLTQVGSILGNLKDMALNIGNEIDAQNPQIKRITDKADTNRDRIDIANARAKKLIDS

T3: CALM_(ANTH(1-289)), GST cleaved (rat, UniProt O55012 1-289)
T3 construct: analyte of the liposome-based SPR and crystallised as 3ZYK; also called GST cleaved CALM_(ANTH); source: E. coli BL21(DE3) pLysS, purified (glutathione sepharose, thrombin cleavage of GST, S200 gel filtration); not shown: GST, N-terminal, cleaved
T3 sequence (looked up): T1 sequence (looked up)

T4: CALM_(ANTH(1-264)) part of the CALM_(ANTH(1-264)):VAMP8_((11-41)) chimera (rat, UniProt O55012 1-264)
T4 construct: PDB 3ZYM), VAMP8 11-41; also called CALM_(ANTH) in the chimeric complex; source: E. coli BL21(DE3) pLysS, purified (glutathione sepharose, thrombin cleavage of GST, S200 gel filtration); not shown: GST, N-terminal, cleaved
T4 sequence (looked up): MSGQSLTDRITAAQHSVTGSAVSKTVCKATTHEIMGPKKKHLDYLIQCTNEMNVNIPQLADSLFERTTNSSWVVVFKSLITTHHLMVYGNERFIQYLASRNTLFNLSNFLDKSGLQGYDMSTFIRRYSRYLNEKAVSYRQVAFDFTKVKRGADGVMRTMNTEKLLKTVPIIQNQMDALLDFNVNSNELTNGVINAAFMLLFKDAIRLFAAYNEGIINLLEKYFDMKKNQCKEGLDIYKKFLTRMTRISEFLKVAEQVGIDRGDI

B1: GST-VAMP3 (VAMP3 residues 1-81) (domain or fragment)
chain: MSTGVPSGSSAATGSNRRLQQTQNQVDEVVDIMRVNVDKVLERDQKLSELDDRADALQAGASQFETSAAKLKRKYWWKNCK
B2: GSTVAMP8 L44PL51P (domain or fragment, mouse, UniProt O70404 1-76, looked up)
chain: MEEASGSAGNDRVRNLQSEVEGVKNIMTQNVERILSRGENLDHPRNKTEDPEATSEHFKTTSQKVARKFWWKNVKM
notes: VAMP8, mouse, residues 1-76; source: E. coli BL21(DE3) pLysS, purified (glutathione sepharose, S200 gel filtration)
B3: GST-VAMP8 (VAMP8 residues 1-76, full cytoplasmic portion) (domain or fragment, mouse, UniProt O70404 1-76, looked up)
chain: B2 chain with P44L, P51L
notes: VAMP8, mouse, residues 1-76 (full cytoplasmic portion); Construct pGEX 4T2 VAMP8_(1-76); GST of pGEX vectors is N-terminal (surmise); also called VAMP8_(1-76); wt GSTVAMP8; source: E. coli BL21(DE3) pLysS, purified (glutathione sepharose, S200 gel filtration)
B4: GST-VAMP8_(10-41) (domain or fragment, mouse, UniProt O70404 10-41, looked up)
chain: NDRVRNLQSEVEGVKNIMTQNVERILSRGENL
notes: VAMP8, mouse, residues 10-41 (N-terminal half of the SNARE motif); Construct pGEX 4T2 VAMP8_((10-41)); also called residues 10-41 of VAMP8; source: E. coli BL21(DE3) pLysS, purified (glutathione sepharose, S200 gel filtration)
B5: CALM_(ANTH(1-264)), GST cleaved (domain or fragment, rat, UniProt O55012 1-264, looked up)
chain: T4 sequence (looked up)
notes: source: E. coli BL21(DE3) pLysS, purified (glutathione sepharose, thrombin cleavage of GST, S200 gel filtration); not shown: GST, N-terminal, cleaved
B6: syntaxin3 (residues 195-253), GST cleaved (domain or fragment, human, UniProt Q13277 195-253, looked up)
chain: EGRHKDIVRLESSIKELHDMFMDIAMLVENQGEMLDNIELNVMHTVDHVEKARDETKKA
notes: syntaxin3, human, residues 195-253; Construct pGEX 4T1syntaxin3_((195-253)) (human); also called syntaxin3_((195-253)); Synatxin3(195–253); source: E. coli BL21(DE3) pLysS, purified (glutathione sepharose, thrombin cleavage of GST); not shown: GST, N-terminal, cleaved
B7: GSTVAMP8 K24AM27A (domain or fragment, mouse, UniProt O70404 1-76, looked up)
chain: B2 chain with K24A, M27A, P44L, P51L
notes: VAMP8, mouse, residues 1-76; pGEX 4T2 VAMP8_(1-76) (mouse) 'and mutants thereof'; also called K24AM27A VAMP8; Lys24AlaMet27Ala mutant of VAMP8; source: E. coli BL21(DE3) pLysS, purified (glutathione sepharose, S200 gel filtration)
B8: VAMP8_(1-76)His12, GST cleaved (domain or fragment, mouse, UniProt O70404 1-76, looked up)
chain: B2 chain with P44L, P51L
notes: VAMP8, mouse, residues 1-76; Construct pGEX 4T2 VAMP8_((1-76))His12; also called His12-tagged VAMP8; His-tagged VAMP8; source: E. coli BL21(DE3) pLysS, purified (glutathione sepharose, thrombin cleavage of GST, Ni2+-NTA agarose, dialysis); not shown: GST, N-terminal, cleaved
B9: His6MycCALM_(ANTH) (CALM ANTH domain, residues 1-289) (domain or fragment)
chain: T1 sequence (looked up)
B10: VAMP8_((11-41)) part of the CALM_(ANTH(1-264)):VAMP8_((11-41)) chimera (domain or fragment, mouse, UniProt O70404 11-41, looked up)
chain: DRVRNLQSEVEGVKNIMTQNVERILSRGENL
notes: VAMP8, mouse, residues 11-41; also called VAMP8 helix; residues 11-41 of VAMP8; source: E. coli BL21(DE3) pLysS, purified (as part of the chimera)

The target in data set [1] is T1, His6MycCALM_(ANTH) (CALM ANTH domain, …). In words: ITC; VPiTC; 2 mM His6MycCALM_(ANTH) (WT or mutant) or GST cleaved Epsin_(ENTH) titrated in 37 injections of 4-8 μL into 0.15 mM GST-SNARE in the cell; 100 mM HEPES pH 7.4, 150 mM NaCl, 4 mM DTT; legends give a representative run with SEM of the fit, the text the average of all runs. As to conditions: both partners purified. (In ITC the heat of successive injections is recorded.)

The target in data set [2] is T2, SNAP23, GST cleaved. In words: pull-down; SNARE complex formation: GST-VAMP8 incubated with a three fold molar excess of SNAP23 and syntaxin3 at 4°C for 48 hr in 20 mM HEPES pH 7.4, 500 mM NaCl, 4 mM DTT, 0.5% NP-40; purified on glutathione-sepharose, then S200 gel filtration. As to conditions: both partners purified. For orientation: In gel filtration, larger molecules generally elute earlier.

Data set [3] concerns the molecule itself. In words: SEC-MALS; analytical S200 10/300 column, 20 mM HEPES pH 7.4, 120 mM NaCl, 4 mM DTT, 0.5 mL/min, inline MALS.
The target in data set [4] is B7. In words: pull-down; SNARE complex formation: GST-VAMP8 incubated with a three fold molar excess of SNAP23 and syntaxin3 at 4°C for 48 hr in 20 mM HEPES pH 7.4, 500 mM NaCl, 4 mM DTT, 0.5% NP-40; purified on glutathione-sepharose, then S200 gel filtration. As to conditions: both partners purified.
Data set [5] addresses B3. The description is as above. Conditions: both partners purified.
The target of data set [6] is T3, CALM_(ANTH(1-289)), GST cleaved. The data set can be described thus: SPR; liposome-based SPR, Biacore 3000, L1 chip; PC/PE + 5% DGS-NTA(Ni) liposomes with captured His12-tagged VAMP8 (600RU); GST cleaved CALM_(ANTH) as analyte, 10 nM to 50 μM, one minute injections at 50 μl/min; PC/PE binding subtracted. Conditions: both partners purified. (Surface plasmon resonance follows binding to a sensor surface in real time, without labels.)

The target of data set [7] is GST-SNARE (WT or mutant). The data set can be described thus: ITC; VPiTC; 2 mM His6MycCALM_(ANTH) (WT or mutant) or GST cleaved Epsin_(ENTH) titrated in 37 injections of 4-8 μL into 0.15 mM GST-SNARE in the cell; 100 mM HEPES pH 7.4, 150 mM NaCl, 4 mM DTT; legends give a representative run with SEM of the fit, the text the average of all runs.
The target in data set [8] is T4, CALM_(ANTH(1-264)) part of the …. In words: crystal structure; CALM_(ANTH(1-264)):VAMP8_((11-41)) chimera on one chain, GST cleaved; sitting drops at 16°C, 100 mM phosphate-citrate pH 4.2, 200 mM NaCl, 50% (v/v) PEG-200; 2.0 Å; PDB 3ZYM. As to conditions: both partners purified.

B1 came in with a Kd in data set [1] of 46 µM.
Molecule B2 returned a Kd in data set [1] of 23 µM.
Consider B3, for which, in data set [1], the Kd is ~18 µM and 17 µM and 20 µM. In addition, the binding result in data set [2] is reported as “binds”.
B4 showed a Kd in data set [1] of 20 µM.
Take B5: the “stoichiometry N” value in data set [3] is 2.
As to B6, the binding result in data set [4] and in data set [5] was “binds” each time.
Regarding B7, the binding result in data set [2] is reported as “binds”.
With B8, in data set [6], the Kd turned out to be 0.9 µM.
B9 had a stoichiometry N in data set [7] of 0.9 to 1.1.
For the molecule B10, the binding result in data set [8] is “binds”.
